Measurements as given in paper PMC6038944 (Biochemistry, 2018).

Experiments:
[1] = target: apo-transferrin (iron-free serotransferrin) (UniProt P02787); assay: SPR; settings: 150 mM NaCl, pH 7.4: 20 mM HEPES, pH 6.0: 20 mM PIPES
[2] = target: the molecule itself

Sequence of apo-transferrin (iron-free serotransferrin) (P02787 whole entry): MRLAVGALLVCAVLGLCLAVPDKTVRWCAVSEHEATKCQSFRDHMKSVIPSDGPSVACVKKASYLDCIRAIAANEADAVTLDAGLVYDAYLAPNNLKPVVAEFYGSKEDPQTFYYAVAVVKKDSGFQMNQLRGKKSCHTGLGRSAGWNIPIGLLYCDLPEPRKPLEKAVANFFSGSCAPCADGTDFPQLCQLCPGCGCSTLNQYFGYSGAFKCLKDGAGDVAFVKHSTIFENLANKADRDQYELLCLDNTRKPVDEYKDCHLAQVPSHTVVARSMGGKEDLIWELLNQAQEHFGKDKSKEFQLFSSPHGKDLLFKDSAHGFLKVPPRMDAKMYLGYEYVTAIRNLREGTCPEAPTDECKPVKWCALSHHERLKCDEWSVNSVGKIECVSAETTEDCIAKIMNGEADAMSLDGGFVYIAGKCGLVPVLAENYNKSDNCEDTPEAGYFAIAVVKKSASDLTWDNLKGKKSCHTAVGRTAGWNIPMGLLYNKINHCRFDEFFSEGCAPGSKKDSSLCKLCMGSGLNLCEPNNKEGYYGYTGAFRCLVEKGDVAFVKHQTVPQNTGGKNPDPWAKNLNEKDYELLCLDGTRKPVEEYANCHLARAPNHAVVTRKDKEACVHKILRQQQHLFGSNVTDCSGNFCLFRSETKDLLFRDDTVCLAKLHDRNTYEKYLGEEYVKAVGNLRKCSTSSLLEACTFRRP

EGFP-TfR1 (full-length transferrin receptor 1, EGFP fusion)
ka1 ([1]; pH 6.0): 1.01e+06 M⁻¹ s⁻¹ | ka2 ([1]; pH 6.0): 3.01e+06 M⁻¹ s⁻¹ | kd1 ([1]; pH 6.0): 1.2 s⁻¹ | ka1 ([1]; pH 7.4): 450000 M⁻¹ s⁻¹ | ka2 ([1]; pH 7.4): 19000 M⁻¹ s⁻¹ | kd1 ([1]; pH 7.4): 22000 s⁻¹

EGFP-TfR2 (full-length transferrin receptor 2, EGFP fusion)
ka1 ([1]; pH 6.0): 150000 M⁻¹ s⁻¹ | ka2 ([1]; pH 6.0): 34000 M⁻¹ s⁻¹ | kd1 ([1]; pH 6.0): 1100 s⁻¹ | kd2 ([1]; pH 6.0): 643 s⁻¹ | ka1 ([1]; pH 7.4): 66000 M⁻¹ s⁻¹ | ka2 ([1]; pH 7.4): 6300 M⁻¹ s⁻¹ | kd1 ([1]; pH 7.4): 44000 s⁻¹ | kd2 ([1]; pH 7.4): 8160 s⁻¹

EGFP-TfR2-TfR1HD (TfR2 chimera carrying the TfR1 helical domain) helical domain swap: TfR2 637-801 replaced by TfR1 605-760
ka1 ([1]; pH 6.0): 160000 M⁻¹ s⁻¹ | ka2 ([1]; pH 6.0): 1.03e+06 M⁻¹ s⁻¹ | kd1 ([1]; pH 6.0): 350 s⁻¹ | kd2 ([1]; pH 6.0): 4950 s⁻¹ | ka1 ([1]; pH 7.4): 510000 M⁻¹ s⁻¹ | ka2 ([1]; pH 7.4): 163000 M⁻¹ s⁻¹ | kd1 ([1]; pH 7.4): 2500 s⁻¹ | kd2 ([1]; pH 7.4): 78300 s⁻¹

B1: full-length EGFP-TfR2 (transferrin receptor-2) (receptor, human, UniProt Q9UP52 1-801, looked up)
chain: MERLWGLFQRAQQLSPRSSQTVYQRVEGPRKGHLEEEEEDGEEGAETLAHFCPMELRGPEPLGSRPRQPNLIPWAAAGRRAAPYLVLTALLIFTGAFLLGYVAFRGSCQACGDSVLVVSEDVNYEPDLDFHQGRLYWSDLQAMFLQFLGEGRLEDTIRQTSLRERVAGSAGMAALTQDIRAALSRQKLDHVWTDTHYVGLQFPDPAHPNTLHWVDEAGKVGEQLPLEDPDVYCPYSAIGNVTGELVYAHYGRPEDLQDLRARGVDPVGRLLLVRVGVISFAQKVTNAQDFGAQGVLIYPEPADFSQDPPKPSLSSQQAVYGHVHLGTGDPYTPGFPSFNQTQFPPVASSGLPSIPAQPISADIASRLLRKLKGPVAPQEWQGSLLGSPYHLGPGPRLRLVVNNHRTSTPINNIFGCIEGRSEPDHYVVIGAQRDAWGPGAAKSAVGTAILLELVRTFSSMVSNGFRPRRSLLFISWDGGDFGSVGSTEWLEGYLSVLHLKAVVYVSLDNAVLGDDKFHAKTSPLLTSLIESVLKQVDSPNHSGQTLYEQVVFTNPSWDAEVIRPLPMDSSAYSFTAFVGVPAVEFSFMEDDQAYPFLHTKEDTYENLHKVLQGRLPAVAQAVAQLAGQLLIRLSHDRLLPLDFGRYGDVVLRHIGNLNEFSGDLKARGLTLQWVYSARGDYIRAAEKLRQEIYSSEERDERLTRMYNVRIMRVEFYFLSQYVSPADSPFRHIFMGRGDHTLGALLDHLRLLRSNSSGTPGATSSTGFQESRFRRQLALLTWTLQGAANALSGDVWNIDNNF
stoichiometry N [2]: 2
